In publication PMC4231161:

What was measured:
[1] = molecular target: gliding-associated protein GAP45 (Toxoplasma gondii (endogenous in tachyzoites)) (UniProt Q7Z289); assay: co-IP; polyclonal anti-MLC1 or anti-GAP45 antibodies on [35S]-labelled wild type (RH) and MyoA-KO parasites and on MyoA-iKO parasites +/- ATc, Triton X-100 lysate, autoradiography, bands quantified with ImageJ
[2] = molecular target: myosin light chain 1 (MLC1) (Toxoplasma gondii (endogenous in tachyzoites)); assay: as above

Q: Which results are given for myosin C (MyoC) (natural protein)?
A: more MyoC co-precipitated in the absence of MyoA than in its presence [1]: 50%; more MyoC co-precipitated in the absence of MyoA than in its presence [2]: 50%
